From patent US20210102195A1

Columns and labels:
cyno CD3 epsilon (cyno) = cyno CD3 epsilon (cyno) (UniProt Q95LI5); assay: biosensor sensorgrams with fits, instrument not named in Example 14; antigen not printed on the panel: taken as cyno CD3 epsilon because 28G-28I and 28J-28L repeat the same three spots (57, 169, 205) and the text gives 67 nM (28G) for human and 107 nM (28J) for cyno
[1] = molecular target: human CD3 epsilon (human) (UniProt P07766); assay: biosensor sensorgrams with fits, instrument not named in Example 14; antigen not printed on the panel: taken as human CD3 epsilon because 28G-28I and 28J-28L repeat the same three spots (57, 169, 205) and the text gives 67 nM (28G) for human and 107 nM (28J) for cyno
Chain of human CD3 epsilon (human) (P07766 23-126 limits assumed): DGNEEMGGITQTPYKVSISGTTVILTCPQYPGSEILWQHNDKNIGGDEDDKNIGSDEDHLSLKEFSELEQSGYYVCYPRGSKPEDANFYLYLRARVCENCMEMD

[2] = molecular target: human CD3 epsilon (human) (UniProt P07766); assay: flow cytometry (MFI), titration 0.05-100 nM on CD8+ T cells (2903)
[3] = molecular target: human CD3 epsilon (human) (UniProt P07766); assay: flow cytometry (MFI), titration 0.05-100 nM on Jurkat cells (2901)
[4] = molecular target: human CD3 epsilon (human) (UniProt P07766); assay: flow cytometry (MFI), titration 0.05-100 nM; cells not named on the panel, the same value stands for CD8+ T-Cell in FIG. 29F

Chain of cyno CD3 epsilon (cyno) (Q95LI5 22-117 limits assumed): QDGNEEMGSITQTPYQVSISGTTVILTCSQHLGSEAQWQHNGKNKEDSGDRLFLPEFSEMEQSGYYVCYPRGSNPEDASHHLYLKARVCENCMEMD

| Kd (cyno CD3 epsilon (cyno)) | Kd [1] | EC50 [2] | EC50 [3] | EC50 [4] | Substance |
| --- | --- | --- | --- | --- | --- |
| 38 nM | < 0.0019 nM | – | – | – | muSP34 (antibody) |
| – | – | 3.05 nM | 0.537 nM | 3.05 nM | R&D MAB100 (antibody) |
